{
  "source": "paper PMC5481817",
  "about": "“Developing Targeted Hybrid Imaging Probes by Chelator Scaffolding” (Bioconjugate chemistry, 2017)",
  "key": {"[1]": {"format": "physicochemical", "conditions": "pH 7.4", "description": "(§1) [^68Ga]Sulfo-Cy7-FSC-MG and [^68Ga]Sulfo-Cy7-FSC-RGD (6 MBq) were diluted with phosphate buffered saline to a concentration of 1 μM. Subsequently 50 μL of this solution was added to six Eppendorf tubes containing 450 μL PBS and 500 μL octanol. The mixture was vortexed (1400 rpm) at RT for 15 min using a MS 3 basic vortexer (IKA, Staufen, Germany) followed by centrifugation for 2 min at 4500 rpm. Aliquots of 100 μL of both phases were transferred to plastic vials, measured in the γ-counter and logD values were calculated. For stability testing, radiolabeled tracers were diluted with 450 μL fresh human serum and 450 μL PBS as control to a concentration of 2 μM followed by incubation at 37 °C. After 1, 2, and 4 h (n = 3) 50 μL aliquots were precipitated with acetonitrile (1:1) and centrifuged for 2 min at 14 × 10^3 rpm. The supernatant was analyzed by radio-RP-HPLC to evaluate for decomposition and corresponding chromatograms are shown in Supporting Information. For protein binding measurement aliquots were analyzed by size exclusion chromatography using MicroSpin G-50 Columns (Sephadex G-50, GE Healthcare, Vienna, Austria) in triplicates. […] Column and eluate were measured in the γ-counter and percentages of nonprotein bound radiolabeled peptide (column) and protein bound radiotracer (eluate) were calculated."}, "in vitro": {"assay": "in vitro", "format": "in vitro ADME, human", "description": "as §1"}, "physchem": {"assay": "physchem", "format": "physicochemical", "conditions": "buffer or solvent", "description": "[^68Ga]Sulfo-Cy7-FSC-MG and [^68Ga]Sulfo-Cy7-FSC-RGD (6 MBq) were diluted with phosphate buffered saline to a concentration of 1 μM. Subsequently 50 μL of this solution was added to six Eppendorf tubes containing 450 μL PBS and 500 μL octanol. The mixture was vortexed (1400 rpm) at RT for 15 min using a MS 3 basic vortexer (IKA, Staufen, Germany) followed by centrifugation for 2 min at 4500 rpm. Aliquots of 100 μL of both phases were transferred to plastic vials, measured in the γ-counter and logD values were calculated. For stability testing, radiolabeled tracers were diluted with 450 μL fresh human serum and 450 μL PBS as control to a concentration of 2 μM followed by incubation at 37 °C. After 1, 2, and 4 h (n = 3) 50 μL aliquots were precipitated with acetonitrile (1:1) and centrifuged for 2 min at 14 × 10^3 rpm. The supernatant was analyzed by radio-RP-HPLC to evaluate for decomposition and corresponding chromatograms are shown in Supporting Information. For protein binding measurement aliquots were analyzed by size exclusion chromatography using MicroSpin G-50 Columns (Sephadex G-50, GE Healthcare, Vienna, Austria) in triplicates. First, the columns were centrifuged at 750 rcf for 1 min to remove the storage buffer. After adding 25 μL of incubation solution columns were centrifuged again for 2 min with 2000 rcf. Column and eluate were measured in the γ-counter and percentages of nonprotein bound radiolabeled peptide (column) and protein bound radiotracer (eluate) were calculated."}, "[2]": {"system": "M21 (αvβ3 positive) cells", "assay": "M21 internalization assay (radioligand)", "format": "cell-based, human", "conditions": "for Cell uptake (internalized): M21 (αvβ3 positive); for membrane bound amount of activity: M21 cells", "description": "(§2) Integrin αvβ3 positive (M21) and αvβ3 negative (M21-L) cells were diluted with incubation medium, i.e., corresponding growth medium containing 1% glutamine (m/v), 1% BSA (m/v), CaCl2 (1 mM), MgCl2 (1 mM), and MnCl2 (10 mM) to a concentration of 2.0 × 10^6 cells/ml. Aliquots of one milliliter were transferred to Eppendorf tubes and six technical replicates for each cell line were incubated for 1 h at 37 °C. Subsequently 50 μL of the radiolabeled ligand (1.2 nM [^68Ga]Sulfo-Cy7-FSC-RGD in PBS/0.5% BSA, approximately 2 × 10^4 cpm) were added and incubated at 37 °C for further 60 and 120 min, respectively. After incubation the tubes were centrifuged (2 min, 5000 rpm; Eppendorf Centrifuge 5424, Hamburg, Germany) and the supernatant was removed and collected. Hereafter the cells were washed twice with 1 mL ice-cold washing buffer (10 mM TRIS-buffered saline, pH 7.3) and the fractions were combined with the supernatant (wash fraction). To determine the membrane bound tracer amount cells were washed two times with 1 mL acetate buffer (20 mM, pH 4.5, 10 min at 37 °C) and the supernatant was collected. The residual cells were lysed by adding 1 mL of 2 M NaOH twice and collected in plastic vials (internalized fraction). The activity of all collected vials was measured in the γ-counter and compared to standard solution (50 μL radiotracer)."}, "[3]": {"system": "M21-L (αvβ3 negative) cells", "assay": "M21-L internalization assay (radioligand)", "format": "cell-based, human", "conditions": "for Cell uptake (internalized): M21-L (αvβ3 negative); for unspecific membrane bound activity: M21-L cells", "description": "as §2"}, "[4]": {"conditions": "mouse, in vivo", "description": "(§3) All animal experiments were conducted in accordance with regulations and guidelines of the Czech Animal Protection Act (No. 246/1992), and with the approval of the Czech Ministry of Education, Youth, and Sports (MSMT-22421/2013–12), and the institutional Animal Welfare Committee of the Faculty of Medicine and Dentistry of Palacky University in Olomouc. The studies were performed using female 8–10-week-old athymic BALB/c nude mice (Envigo, Horst, The Netherlands). The number of animals was reduced as much as possible (n = 3 per group and time point for all experiments) and retro-orbital (r.o.) tracer injection as well as small animal imaging was carried out under 2% isoflurane anesthesia (FORANE, Abbott Laboratories, Abbott Park, IL, USA) to minimize animal suffering.\n(§4) Tumor xenografts were established near the front shoulder of mice by subcutaneous injection of 5 × 10^6 cells (U-87 MG) or 2 × 10^6 cells (A431-CCK2R) and the same amount of A431-mock cells as a control in 200 μL appropriate medium and Matrigel (1:1). The tumors were allowed to grow until they had reached a volume of 0.2 to 0.5 cm^3. To evaluate ex vivo biodistribution mice were injected with 1–2 MBq (0.05–0.14 nmol) of radiotracer per mouse and mice were sacrificed by cervical dislocation after 30 and 90 min for [^68Ga]Sulfo-Cy7-FSC-RGD and after 1 and 2 h in the case of [^68Ga]Sulfo-Cy7-FSC-MG. Tumors, blood, muscle tissue, and organs were extracted, weighed, and activity uptake of the samples was measured in the gamma counter. Results were expressed as percentage of injected dose per gram tissue (% ID/g). In vivo PET and CT images were acquired with an Albira PET/SPECT/CT small animal imaging system (Bruker Biospin Corporation, Wood-bridge, CT, USA). Xenograft bearing mice were injected with radiolabeled peptides in a dose of ~5 MBq corresponding to 1–2 μg (0.25–0.58 nmol) of peptide per mouse. Anaesthetized animals were positioned prone head first in the Albira system before the start of imaging. Static PET/CT imaging was carried out 30 and 90 min p.i. for [^68Ga]Sulfo-Cy7-FSC-RGD. Animals injected with [^68Ga]Sulfo-Cy7-FSC-MG were imaged 1 and 2 h p.i. A 10 min PET scan (axial FOV 148 mm) was performed, followed by a CT scan (axial FOV 65 mm, 45 kVp, 400 μA, at 400 projections). Scans were reconstructed with the Albira software (Bruker Biospin Corporation, Woodbridge, CT, USA) using the maximum likelihood expectation maximization (MLEM) and filtered backprojection (FBP) algorithms. After reconstruction, acquired data was viewed and analyzed with PMOD software (PMOD Technologies Ltd., Zurich, Switzerland). 3D images were obtained using VolView software (Kitware, Clifton Park, NY, USA). Near-infrared in vivo fluorescence imaging was performed with an In-Vivo MS FX PRO small animal imaging system (Bruker Biospin Corporation, Woodbridge, CT, USA). Sulfo-Cy7-FSC-MG and Sulfo-Cy7-FSC-RGD were injected in a dose of 0.25–0.58 nmol per mouse and after supine head first positioning, imaging was conducted in various time intervals up to 72 h p.i. An appropriate filter set (excitation = 730 nm and emission = 790 nm) was used for acquiring the Sulfo-Cy7-FSC-peptide - fluorescence in vivo. Identical illumination settings (acquisition time = 15 s, filters = 730/790 nm, f-stop = 2.8, field of view = 100 mm, and binning = 4 × 4) were used for acquiring all images, and fluorescence emission was normalized to photons/s/mm^2. Images were acquired and analyzed using Bruker MI SE software (Bruker Biospin Corporation, Woodbridge, CT, USA)."}, "[5]": {"system": "U-87MG (αvβ3 positive) xenograft bearing mice", "conditions": "mouse, in vivo, 1.5 h", "description": "as §3, §4"}, "[6]": {"system": "mice bearing U-87MG tumor xenografts", "assay": "Static micro-PET/CT imaging, U-87MG xenografts", "format": "in vivo, mouse", "conditions": "static PET, 30 and 90 min p.i.", "description": "All animal experiments were conducted in accordance with regulations and guidelines of the Czech Animal Protection Act (No. 246/1992), and with the approval of the Czech Ministry of Education, Youth, and Sports (MSMT-22421/2013–12), and the institutional Animal Welfare Committee of the Faculty of Medicine and Dentistry of Palacky University in Olomouc. The studies were performed using female 8–10-week-old athymic BALB/c nude mice (Envigo, Horst, The Netherlands). […]\nTumor xenografts were established near the front shoulder of mice by subcutaneous injection of 5 × 10^6 cells (U-87 MG) or 2 × 10^6 cells (A431-CCK2R) and the same amount of A431-mock cells as a control in 200 μL appropriate medium and Matrigel (1:1). […] Tumors, blood, muscle tissue, and organs were extracted, weighed, and activity uptake of the samples was measured in the gamma counter. Results were expressed as percentage of injected dose per gram tissue (% ID/g). […] After reconstruction, acquired data was viewed and analyzed with PMOD software (PMOD Technologies Ltd., Zurich, Switzerland). […] Near-infrared in vivo fluorescence imaging was performed with an In-Vivo MS FX PRO small animal imaging system (Bruker Biospin Corporation, Woodbridge, CT, USA). […] An appropriate filter set (excitation = 730 nm and emission = 790 nm) was used for acquiring the Sulfo-Cy7-FSC-peptide - fluorescence in vivo. […]"}, "[7]": {"conditions": "87 mg, accumulation in tumor tissue"}},
  "note": "Read-outs that look alike come from different tables or passages of the source.",
  "data": [
    {"smiles": "C/C1=C/C(=O)N(O)CCC[C@H](NC(=O)CCN2C(=O)CC(SCCOCCOCCOCCOCCC(=O)NCCCC[C@@H]3NC(=O)[C@@H](Cc4ccccc4)NC(=O)[C@H](CC(=O)O)NC(=O)CNC(=O)[C@H](CCCNC(=N)N)NC3=O)C2=O)C(=O)OCC/C(C)=C\\C(=O)N(O)CCC[C@H](NC(=O)CCN2C(=O)CC(SCCOCCOCCOCCOCCC(=O)NCCCC[C@@H]3NC(=O)[C@@H](Cc4ccccc4)NC(=O)[C@H](CC(=O)O)NC(=O)CNC(=O)[C@H](CCCNC(=N)N)NC3=O)C2=O)C(=O)OCC/C(C)=C\\C(=O)N(O)CCC[C@H](NC(=O)CCCCC[N+]2=C(C=CC3=CC(=CC=C4N(C)c5ccc(S(=O)(=O)[O-])cc5C4(C)C)CCC3)C(C)(C)c3cc(S(=O)(=O)O)ccc32)C(=O)OCC1", "note": "(stereo partly drawn) [[^68Ga]Sulfo-Cy7-FSC-RGD, metal not drawn]", "values": [
      {"measurement": "logD", "setting": "[1]", "result": "-2.3 ± 0.16"},
      {"measurement": "Binding to serum proteins", "setting": "in vitro", "result": "approximately 20%"},
      {"measurement": "remaining at 1 h, 2 μM", "setting": "physchem", "result": "95.7 ± 0.1", "unit": "%"},
      {"measurement": "remaining at 2 h, 2 μM", "setting": "physchem", "result": "94.7 ± 0.6", "unit": "%"},
      {"measurement": "remaining at 4 h, 2 μM", "setting": "physchem", "result": "94.4 ± 0.3", "unit": "%"},
      {"measurement": "Cell uptake (internalized)", "setting": "[2]; 1 h", "result": "2.45 ± 0.36", "unit": "%"},
      {"measurement": "Cell uptake (internalized)", "setting": "[2]; 2 h", "result": "4.41 ± 1.17", "unit": "%"},
      {"measurement": "membrane bound amount of activity", "setting": "[2]; 1 h", "result": "1.09 ± 0.23", "unit": "%"},
      {"measurement": "membrane bound amount of activity", "setting": "[2]; 2 h", "result": "1.79 ± 0.59", "unit": "%"},
      {"measurement": "Cell uptake (internalized)", "setting": "[3]; 1 h", "result": "0.43 ± 0.25", "unit": "%"},
      {"measurement": "Cell uptake (internalized)", "setting": "[3]; 2 h", "result": "0.71 ± 0.66", "unit": "%"},
      {"measurement": "unspecific membrane bound activity", "setting": "[3]; 1 h", "result": "0.29 ± 0.12", "unit": "%"},
      {"measurement": "unspecific membrane bound activity", "setting": "[3]; 2 h", "result": "0.80 ± 0.62", "unit": "%"},
      {"measurement": "cell uptake on αvβ3 negative cells relative to αvβ3 positive cells (reduced to)", "setting": "[3]; M21-L vs M21, 1 and 2 h", "result": "approximately 1/6"},
      {"measurement": "tissue uptake at 0.5 h", "setting": "[4]; [7]", "result": "10.1 ± 0.8", "unit": "%ID/g"},
      {"measurement": "tissue uptake at 1.5 h", "setting": "[4]; [7]", "result": "7.5 ± 0.8", "unit": "%ID/g"},
      {"measurement": "tissue uptake at 0.5 h", "setting": "[4]; blood", "result": "4 ± 0.4", "unit": "%ID/g"},
      {"measurement": "tissue uptake at 1.5 h", "setting": "[4]; blood", "result": "1.3 ± 0.2", "unit": "%ID/g"},
      {"measurement": "tissue uptake at 1.5 h", "setting": "[4]; kidney retention", "result": "54.8 ± 1.1", "unit": "%ID/g"},
      {"measurement": "kidney retention", "setting": "[5]", "result": "57.3 ± 4.6", "unit": "% ID/g"},
      {"measurement": "PET tumor visualization", "setting": "[6]", "result": "tumor was visualized clearly"}
    ]}
  ]
}
